In publication PMC4238996 (PLoS Neglected Tropical Diseases, 2014):

B1: unnamed (parent)
chain 1: MQQPTEHTTPMDSLAPPALVIKTPHQAFTAHAAQGPVVIGRDAPAQVRIPDERISRAHVRVTYTSTGWVAVDMSSNGTFVNGVQQATIPITDGLTIHLGHPLEGIAISFSYTIAPPLAVDDATEHIEDTSDPKMVRVGAEIAARREELGLPKRELDRRGVVGQATMTDIEKGRRFPRPFTRDKIEAVLGWPRGHIMWLYEQDIQPDEERTHVLTATTPVPEITGATKMALKGFTAAADSLPPEDDPAFTDRVGALLADLRELESVAASATHSAHGTSAAALVLSDVRKLYKALMLRAAGAPGATLGQRFYAARYRAELTTQDAAAAAGLPVAIIEAAEADAPLDPAATAAVQALLTSLLSQR
chain 2: MALPLGTVVAGYVIEGVLGSGGMGTVYLARHPTLPRSDALKILSAELSQDEQFRVRFIREADLAATLSHPNIVTVFNRGETDDGQLWIAMQYVEGTTASDLHATVLTPARVAAIITDVGAALDYAHSRRVLHRDIKPSNFLVSADHERVLLADFGIARAFDDTTLTAIGSLVGTASYAAPEAIQGGSVDQRADVYSLGCALFRLLTGRAPYEDLRGPAMLMAHVLQPIPRPSHIVVGLPPAIDDVIAVAMAKDPAARFPTAGALAGAARAALSGQPLPQAPPGGPKTRIWAAPPLSYPTTRPPGISGGAISPAGFAGAAHPGLAGAASSSDERGGPRAPRRRKR

Variants of: B1
Assay: sandwich ELISA
Settings: with partner chain of the complex shown; His6-PknQ adsorbed on a 96-well plate; equimolar amounts of GST-tagged substrates; parent: 2; read off a plot

For chain 1 MQQPTEHTTPMDSLAPPALVIKTPHQAFTAHAAQGPVVIGRDAPAQVRIPDERIARAHVRVTYTSTGWVAVDMSSNGTFVNGVQQATIPITDGLTIHLGHPLEGIAISFSYTIAPPLAVDDATEHIEDTSDPKMVRVGAEIAARREELGLPKRELDRRGVVGQATMTDIEKGRRFPRPFTRDKIEAVLGWPRGHIMWLYEQDIQPDEERTHVLTATTPVPEITGATKMALKGFTAAADSLPPEDDPAFTDRVGALLADLRELESVAASATHSAHGTSAAALVLSDVRKLYKALMLRAAGAPGATLGQRFYAARYRAELTTQDAAAAAGLPVAIIEAAEADAPLDPAATAAVQALLTSLLSQR [chain 1 S55A], which response is on record?
The response was 0.38 O.D. 490 nm.

Which response does the source give for chain 1 MQQPTEHTTPMDSLAPPALVIKTPHQAFTAHAAQGPVVIGADAPAQVRIPDERISRAHVRVTYTSTGWVAVDMSSNGTFVNGVQQATIPITDGLTIHLGHPLEGIAISFSYTIAPPLAVDDATEHIEDTSDPKMVRVGAEIAARREELGLPKRELDRRGVVGQATMTDIEKGRRFPRPFTRDKIEAVLGWPRGHIMWLYEQDIQPDEERTHVLTATTPVPEITGATKMALKGFTAAADSLPPEDDPAFTDRVGALLADLRELESVAASATHSAHGTSAAALVLSDVRKLYKALMLRAAGAPGATLGQRFYAARYRAELTTQDAAAAAGLPVAIIEAAEADAPLDPAATAAVQALLTSLLSQR [chain 1 R41A] here?
The response was 0.95 O.D. 490 nm.

Variants of: B1
Assay: ELISA
Settings: with partner chain of the complex shown; read at the highest MupFHA concentration point, x about 1160 µM; parent: 1.6; read off a plot

How did the response turn out when chain 2 MALPLGTVVAGYVIEGVLGSGGMGTVYLARHPTLPRSDALKILSAELSQDEQFRVRFIREADLAATLSHPNIVTVFNRGETDDGQLWIAMQYVEGTTASDLHATVLTPARVAAIITDVGAALDYAHSRRVLHRDIKPSNFLVSADHERVLLADFGIARAFDDTTLTAIGALVGTASYAAPEAIQGGSVDQRADVYSLGCALFRLLTGRAPYEDLRGPAMLMAHVLQPIPRPSHIVVGLPPAIDDVIAVAMAKDPAARFPTAGALAGAARAALSGQPLPQAPPGGPKTRIWAAPPLSYPTTRPPGISGGAISPAGFAGAAHPGLAGAASSSDERGGPRAPRRRKR [chain 2 S170A] was run?
Its response is 0.21 O.D. 490 nm.

For chain 2 MALPLGTVVAGYVIEGVLGSGGMGTVYLARHPTLPRSDALKILSAELSQDEQFRVRFIREADLAATLSHPNIVTVFNRGETDDGQLWIAMQYVEGTTASDLHATVLTPARVAAIITDVGAALDYAHSRRVLHRDIKPSNFLVSADHERVLLADFGIARAFDDTTLAAIGSLVGTASYAAPEAIQGGSVDQRADVYSLGCALFRLLTGRAPYEDLRGPAMLMAHVLQPIPRPSHIVVGLPPAIDDVIAVAMAKDPAARFPTAGALAGAARAALSGQPLPQAPPGGPKTRIWAAPPLSYPTTRPPGISGGAISPAGFAGAAHPGLAGAASSSDERGGPRAPRRRKR [chain 2 T166A], which response is on record?
The response was 1.5 O.D. 490 nm.

How did the response turn out when chain 2 MALPLGTVVAGYVIEGVLGSGGMGTVYLARHPTLPRSDALMILSAELSQDEQFRVRFIREADLAATLSHPNIVTVFNRGETDDGQLWIAMQYVEGTTASDLHATVLTPARVAAIITDVGAALDYAHSRRVLHRDIKPSNFLVSADHERVLLADFGIARAFDDTTLTAIGSLVGTASYAAPEAIQGGSVDQRADVYSLGCALFRLLTGRAPYEDLRGPAMLMAHVLQPIPRPSHIVVGLPPAIDDVIAVAMAKDPAARFPTAGALAGAARAALSGQPLPQAPPGGPKTRIWAAPPLSYPTTRPPGISGGAISPAGFAGAAHPGLAGAASSSDERGGPRAPRRRKR [chain 2 K41M] was run?
The response was 0.26 O.D. 490 nm.

Same assay, conditions: with partner chain of the complex shown; read at the highest MupFHA concentration point, x about 2320 µM; parent: 1; read off a plot

For chain 2 MALPLGTVVAGYVIEGVLGSGGMGTVYLARHPTLPRSDALKILSAELSQDEQFRVRFIREADLAATLSHPNIVTVFNRGETDDGQLWIAMQYVEGTTASDLHATVLTPARVAAIITDVGAALDYAHSRRVLHRDIKPSNFLVSADHERVLLADFGIARAFDDTTLTAIGALVGTASYAAPEAIQGGSVDQRADVYSLGCALFRLLTGRAPYEDLRGPAMLMAHVLQPIPRPSHIVVGLPPAIDDVIAVAMAKDPAARFPTAGALAGAARAALSGQPLPQAPPGGPKTRIWAAPPLSYPTTRPPGISGGAISPAGFAGAAHPGLAGAASSSDERGGPRAPRRRKR [chain 2 S170A], which response is on record?
The response was 0.43 O.D. 490 nm.

chain 2 MALPLGTVVAGYVIEGVLGSGGMGTVYLARHPTLPRSDALKILSAELSQDEQFRVRFIREADLAATLSHPNIVTVFNRGETDDGQLWIAMQYVEGTTASDLHATVLTPARVAAIITDVGAALDYAHSRRVLHRDIKPSNFLVSADHERVLLADFGIARAFDDTTLTAIGSLVGAASYAAPEAIQGGSVDQRADVYSLGCALFRLLTGRAPYEDLRGPAMLMAHVLQPIPRPSHIVVGLPPAIDDVIAVAMAKDPAARFPTAGALAGAARAALSGQPLPQAPPGGPKTRIWAAPPLSYPTTRPPGISGGAISPAGFAGAAHPGLAGAASSSDERGGPRAPRRRKR [chain 2 T174A] was tested. Which response did it give?
The response was 0.58 O.D. 490 nm.

chain 2 MALPLGTVVAGYVIEGVLGSGGMGTVYLARHPTLPRSDALKILSAELSQDEQFRVRFIREADLAATLSHPNIVTVFNRGETDDGQLWIAMQYVEGTTASDLHATVLTPARVAAIITDVGAALDYAHSRRVLHRDIKPSNFLVSADHERVLLADFGIARAFDDTTLTAIGSLVGTASYAAPEAIQGGSVDQRADVYSLGCALFRLLTGRAPYEDLRGPAMLMAHVLQPIPRPSHIVVGLPPAIDDVIAVAMAKDPAARFPAAGALAGAARAALSGQPLPQAPPGGPKTRIWAAPPLSYPTTRPPGISGGAISPAGFAGAAHPGLAGAASSSDERGGPRAPRRRKR [chain 2 T260A] was tested. Which response did it give?
Its response is 1 O.D. 490 nm.
